This note sets out measurements from patent US20190256585A1 (IMMUNEMED, published 2019).

The target of experiment [1] is isolated peptide of SEQ ID NO: 1 (vimentin amino acid positions 142 to 294). The experiment is described as follows: method not described (refers to FIGS. 54 to 58).
Experiment [2] deals with T1, VSF receptors on L929 cells infected with EMC-D virus (mouse, UniProt P20152 2-466).
T1 construct: also called receptors of hzVSF; VR
Nature of the experiment: depletion of ligand from the culture supernatant of EMC-D-infected L929 cells (added minus recovered after 1 hour). How it is done: L929 cells were seeded at the amount of 6×10⁵ cells and infected with 2 MOI of EMC-D virus for 0, 2, 6, and 10 hours, respectively. […] The difference between the amount of each ligand added and the amount of the collected ligand after reaction is the amount of the ligand bound to the receptors, and based on the result, the affinity constant (Ka) and the dissociation constant (Kd) were calculated (Table 11).

T1 sequence (P20152 2-466 limits assumed, form in doubt): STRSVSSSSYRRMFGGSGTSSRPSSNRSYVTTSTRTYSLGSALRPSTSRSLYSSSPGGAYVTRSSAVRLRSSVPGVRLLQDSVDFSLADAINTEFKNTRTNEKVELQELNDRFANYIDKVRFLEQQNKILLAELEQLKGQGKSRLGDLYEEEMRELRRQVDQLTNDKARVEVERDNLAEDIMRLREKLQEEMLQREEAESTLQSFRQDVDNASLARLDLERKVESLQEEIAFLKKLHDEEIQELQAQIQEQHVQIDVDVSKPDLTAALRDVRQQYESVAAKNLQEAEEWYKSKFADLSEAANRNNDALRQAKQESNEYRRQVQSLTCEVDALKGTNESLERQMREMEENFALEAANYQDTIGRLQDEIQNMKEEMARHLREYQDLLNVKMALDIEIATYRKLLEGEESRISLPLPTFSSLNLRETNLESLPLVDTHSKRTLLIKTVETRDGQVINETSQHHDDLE

B1: humanized virus suppressing factor wild-type (hzVSF_wt) (antibody, V domains shown)
VH: EVQLVQSGAEVKKPGASVKVSCKASGYTFTGYNMNWVRQAPGKGLEWMGNIDPYYGSTTYAQKFQGRVTMTVDKSISTAYMELSRLRSDDTAVYYCARETGTRAMDYWGQGTLVTVSS
VL: DIQMTQSPSSLSASVGDRVTITCRASENIYSNLAWYQQKPGKAPKLLIYVATNLADGVPSRFSGSGSGTDFTLTISSLQPEDFATYYCQHFYGSPRTFGGGTKVEIK
notes: also called hzVSF wild-type
What is called Kd is the concentration at which binding is half-saturated. The low end stands for a tighter complex, the high end for a looser complex. For the molecule B1, the binding result in experiment [1] was “binds”. Moreover, in experiment [2], the Ka worked out at 8.2e+09 M⁻¹ and the Kd is 0.12 nM.

B2: hzVSF_var13 (antibody, V domains shown)
VH: EVQLVQSGAEVKKPGASVKVSCKASGYTFTGYNMNWVRQAPGKGLEWMGNIDPYYGSDTYAQKFQGRVTMTVDKSISTAYMELSRLRSDDTAVYYCARETGTRAMDYWGQGTLVTVSS
VL: DIQMTQSPSSLSASVGDRVTITCRASENIYSNLAWYQQKPGKAPKLLIYVADNLADGVPSRFSGSGSGTDFTLTISSLQPEDFATYYCQHFYGSPRTFGGGTKVEIK
notes: constant regions not tied to this variant; also called hzVSF v13
Turning to B2, in experiment [1], the binding result is listed as “binds”. In experiment [2], the Ka was 1.7e+10 M⁻¹ and the dissociation constant Kd is 0.059 nM.

B3: hzVSF_var4 (antibody, V domains shown)
VH: EVQLVQSGAEVKKPGASVKVSCKASGYTFTGYNMNWVRQAPGKGLEWMGNIDPYYGSTTYAQKFQGRVTMTVDKSISTAYMELSRLRSDDTAVYYCARETGTRAMDYWGQGTLVTVSS
VL: DIQMTQSPSSLSASVGDRVTITCRASENIYSNLAWYQQKPGKAPKLLIYVADNRGDGVPSRFSGSGSGTDFTLTISSLQPEDFATYYCQHFYGTPRTFGGGTKVEIK
notes: Humanized IgG variant of hzVSF; constant regions not tied to this variant
Turning to B3, the binding result in experiment [1] is “binds”.

B4: hzVSF_var12 (antibody, V domains shown)
VH: EVQLVQSGAEVKKPGASVKVSCKASGYTFTGYNMNWVRQAPGKGLEWMGNIDPYYGSDTYAQKFQGRVTMTVDTSASTAYMELSRLRSDDTAVYYCARETGNRAMDYWGQGTLVTVSS
VL: DIQMTQSPSSLSASVGDRVTITCRASENIYSNLAWYQQKPGKAPKLLIYVADNRGDGVPSRFSGSGSGTDFTLTISSLQPEDFATYYCQHFYGTPRTFGGGTKVEIK
notes: as for B3
Take B4: in experiment [1], the binding result is given as “binds”.

B5: hzVSF_var2 (antibody, V domains shown)
VH: EVQLVQSGAEVKKPGASVKVSCKASGYTFTGYNMNWVRQAPGKGLEWMGNIDPYYGSTTYAQKFQGRVTMTVDKSISTAYMELSRLRSDDTAVYYCARETGTRAMDYWGQGTLVTVSS
VL: DIQMTQSPSSLSASVGDRVTITCRASENIYSNLAWYQQKPGKAPKLLIYVADNLGDGVPSRFSGSGSGTDFTLTISSLQPEDFATYYCQHFYGSPRTFGGGTKVEIK
notes: as for B3
On to B5, for which the binding result in experiment [1] is “binds”.

B6: hzVSF_var8 (antibody, V domains shown)
VH: EVQLVQSGAEVKKPGASVKVSCKASGYTFTGYNMNWVRQAPGKGLEWMGNIDPYYGSDTYAQKFQGRVTMTVDTSASTAYMELSRLRSDDTAVYYCARETGNRAMDYWGQGTLVTVSS
VL: DIQMTQSPSSLSASVGDRVTITCRASENIYSNLAWYQQKPGKAPKLLIYVATNLADGVPSRFSGSGSGTDFTLTISSLQPEDFATYYCQHFYGSPRTFGGGTKVEIK
notes: as for B3
Consider B6, for which the binding result in experiment [1] is on record as “binds”.

B7: hzVSF_var6 (antibody, V domains shown)
VH: EVQLVQSGAEVKKPGASVKVSCKASGYTFTGYNMNWVRQAPGKGLEWMGNIDPYYGSTTYAQKFQGRVTMTVDTSASTAYMELSRLRSDDTAVYYCARETGTRAMDYWGQGTLVTVSS
VL: DIQMTQSPSSLSASVGDRVTITCRASENIYSNLAWYQQKPGKAPKLLIYVATNLADGVPSRFSGSGSGTDFTLTISSLQPEDFATYYCQHFYGSPRTFGGGTKVEIK
notes: as for B3
As to B7, in experiment [1], the binding result is given as “binds”.

B8: hzVSF_var5 (antibody, V domains shown)
VH: EVQLVQSGAEVKKPGASVKVSCKASGYTFTGYNMNWVRQAPGKGLEWMGNIDPYYGSDTYAQKFQGRVTMTVDKSISTAYMELSRLRSDDTAVYYCARETGTRAMDYWGQGTLVTVSS
VL: DIQMTQSPSSLSASVGDRVTITCRASENIYSNLAWYQQKPGKAPKLLIYVATNLADGVPSRFSGSGSGTDFTLTISSLQPEDFATYYCQHFYGSPRTFGGGTKVEIK
notes: as for B3
With B8, the binding result in experiment [1] was “binds”.

B9: hzVSF_var3 (antibody, V domains shown)
VH: EVQLVQSGAEVKKPGASVKVSCKASGYTFTGYNMNWVRQAPGKGLEWMGNIDPYYGSTTYAQKFQGRVTMTVDKSISTAYMELSRLRSDDTAVYYCARETGTRAMDYWGQGTLVTVSS
VL: DIQMTQSPSSLSASVGDRVTITCRASENIYSNLAWYQQKPGKAPKLLIYVADNRGDGVPSRFSGSGSGTDFTLTISSLQPEDFATYYCQHFYGSPRTFGGGTKVEIK
notes: as for B3
As to B9, in experiment [1], the binding result is “binds”.

B10: hzVSF_var11 (antibody, V domains shown)
VH: EVQLVQSGAEVKKPGASVKVSCKASGYTFTGYNMNWVRQAPGKGLEWMGNIDPYYGSDTYAQKFQGRVTMTVDTSASTAYMELSRLRSDDTAVYYCARETGTRAMDYWGQGTLVTVSS
VL: DIQMTQSPSSLSASVGDRVTITCRASENIYSNLAWYQQKPGKAPKLLIYVADNRGDGVPSRFSGSGSGTDFTLTISSLQPEDFATYYCQHFYGTPRTFGGGTKVEIK
notes: as for B3
For B10, the binding result in experiment [1] was “binds”.

B11: hzVSF_var10 (antibody, V domains shown)
VH: EVQLVQSGAEVKKPGASVKVSCKASGYTFTGYNMNWVRQAPGKGLEWMGNIDPYYGSDTYAQKFQGRVTMTVDTSASTAYMELSRLRSDDTAVYYCARETGNRAMDYWGQGTLVTVSS
VL: DIQMTQSPSSLSASVGDRVTITCRASENIYSNLAWYQQKPGKAPKLLIYVADNRGDGVPSRFSGSGSGTDFTLTISSLQPEDFATYYCQHFYGSPRTFGGGTKVEIK
notes: as for B3
Turning to B11, the binding result in experiment [1] is recorded as “binds”.

B12: hzVSF_var1 (antibody, V domains shown)
VH: EVQLVQSGAEVKKPGASVKVSCKASGYTFTGYNMNWVRQAPGKGLEWMGNIDPYYGSTTYAQKFQGRVTMTVDKSISTAYMELSRLRSDDTAVYYCARETGTRAMDYWGQGTLVTVSS
VL: DIQMTQSPSSLSASVGDRVTITCRASENIYSNLAWYQQKPGKAPKLLIYVADNLADGVPSRFSGSGSGTDFTLTISSLQPEDFATYYCQHFYGSPRTFGGGTKVEIK
notes: Humanized IgG variant of hzVSF; constant regions not tied to this variant; also called hzVSF_1
Regarding B12, the binding result in experiment [1] is reported as “binds”.

B13: hzVSF_var7 (antibody, V domains shown)
VH: EVQLVQSGAEVKKPGASVKVSCKASGYTFTGYNMNWVRQAPGKGLEWMGNIDPYYGSDTYAQKFQGRVTMTVDTSASTAYMELSRLRSDDTAVYYCARETGTRAMDYWGQGTLVTVSS
VL: DIQMTQSPSSLSASVGDRVTITCRASENIYSNLAWYQQKPGKAPKLLIYVATNLADGVPSRFSGSGSGTDFTLTISSLQPEDFATYYCQHFYGSPRTFGGGTKVEIK
notes: as for B3
Consider B13, for which the binding result in experiment [1] is recorded as “binds”.

B14: hzVSF_var9 (antibody, V domains shown)
VH: EVQLVQSGAEVKKPGASVKVSCKASGYTFTGYNMNWVRQAPGKGLEWMGNIDPYYGSDTYAQKFQGRVTMTVDTSASTAYMELSRLRSDDTAVYYCARETGTRAMDYWGQGTLVTVSS
VL: DIQMTQSPSSLSASVGDRVTITCRASENIYSNLAWYQQKPGKAPKLLIYVADNRGDGVPSRFSGSGSGTDFTLTISSLQPEDFATYYCQHFYGSPRTFGGGTKVEIK
notes: as for B3
In the case of B14, the binding result in experiment [1] is listed as “binds”.

B15: mouse virus suppressing factor (mVSF) (antibody, V domains shown)
VH: EIQLQQSGAELVKPGASVKISCKASGYSFTGYNMNWVKQSHGKSLEWIGNIDPYYGSTTYNQKFKGKATLTVDKSSSTAYMQLNSLTSEDSAVYYCARETGTRAMDYWGQGTSVTVSS
VL: DIQMTQSPASLSASVGETVTMTCRASENIYSNLAWYQQKQGKSPQLLVYVATNLADGVPSRFSGSGSGTQFSLKINSLQPEDFGSYYCQHFYGSPRTFGGGTKLEIKR
notes: also called mouse VSF
In the case of B15, in experiment [2], the Ka is 2.1e+10 M⁻¹ and the equilibrium dissociation constant (Kd) stood at 0.047 nM.
